± gives the standard deviation.
Assay: protein stability index of a GFP-peptide fusion (GPS, HEK-293T) (PSI 1-6); higher = more stable
[1] = treatment: DMSO, c terminus: a fixed tail appended
[2] = treatment: MLN4924 1 uM, 8 h, c terminus: a fixed tail appended
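Also: 24-mer peptide tiles fused after GFP, lentivirally expressed, FACS-sorted into six equal bins by GFP/DsRed ratio, decoded by Illumina sequencing, PSI is the read-weighted mean bin number.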

Sequence: EVQGDQQAWFGFAGTPGYLSPEVL [CAMK2B]
- protein stability index [1]: 3.07 ± 0.35
- protein stability index [2]: 3.14 ± 0.21

Sequence: ESTELMTHLEAQNRIKGCHDHLTL [PDLIM4]
- protein stability index [1]: 3.83 ± 0.13
- protein stability index [2]: 3.88 ± 0.15

Sequence: AGFAQLTHLLMGLAGGKLILSLEG [HDAC6]
- protein stability index [1]: 3.56 ± 0.82
- protein stability index [2]: 3.05 ± 0.82

Sequence: GTEQAPYGMQTQNYPKGGLLDSMC [ETS2]
- protein stability index [1]: 3.59 ± 0.17
- protein stability index [2]: 3.84 ± 0.4

Sequence: RVFLFQAPSKEEMLSWILRINLVA [PSD2]
- protein stability index [1]: 2.64 ± 0.54
- protein stability index [2]: 2.7 ± 0.46

Sequence: CRREAFRRLGNGVSDDLSSEEDGE [PHTF1]
- protein stability index [1]: 4.94 ± 0.19
- protein stability index [2]: 4.77 ± 0.13

Sequence: GHGADVLCLDLAPSETGNTFVSGG [GNB5]
- protein stability index [1]: 4.24 ± 0.084
- protein stability index [2]: 4.33 ± 0.4

Sequence: GPGIVGNVLVDPSARIGQNCSIGP [GMPPB]
- protein stability index [1]: 3.74 ± 0.32
- protein stability index [2]: 3.81 ± 0.21

Sequence: VDPANDTFDIDPMVVTDCIQVDPP [MCOLN1]
- protein stability index [1]: 5.09 ± 0.38
- protein stability index [2]: 5.22 ± 0.28

Sequence: NLRYGFTKEVMNKYKVHGKEILRT [PPEF2]
- protein stability index [1]: 2.63 ± 0.3
- protein stability index [2]: 2.57 ± 0.31

Sequence: SSELTDSLRTLKPEGNILRDRFKS [NOP53]
- protein stability index [1]: 4.42 ± 0.22
- protein stability index [2]: 4.49 ± 0.14

Sequence: ETLLKVDLENRCQSLTEDLEFRKS [LMNB1]
- protein stability index [1]: 4.42 ± 0.22
- protein stability index [2]: 4.43 ± 0.2

Sequence: EVKIEEPVSMEMDNHMSDKDESCY [INTS3]
- protein stability index [1]: 5.31 ± 0.37
- protein stability index [2]: 5.37 ± 0.19

Sequence: LCKSVLEIERAIKQTQCPADPLQL [FEM1C]
- protein stability index [1]: 3.17 ± 0.13
- protein stability index [2]: 3.11 ± 0.26

Sequence: CYSEEITVCGDLHGQLDDLIFIFY [PPEF2]
- protein stability index [1]: 2.96 ± 0.43
- protein stability index [2]: 2.65 ± 0.46

Sequence: KVEVDMEKIAAEIAQAEEQARKRQ [SMARCE1]
- protein stability index [1]: 4.99 ± 0.27
- protein stability index [2]: 4.78 ± 0.37

Sequence: SASVIFEGVDIKNGTEDLPYAMKP [NSDHL]
- protein stability index [1]: 4.39 ± 0.12
- protein stability index [2]: 4.28 ± 0.26

Sequence: IAHRGERRGIGGIFFDDLDSPSKE [CPOX]
- protein stability index [1]: 4.57 ± 0.4
- protein stability index [2]: 4.72 ± 0.21

Sequence: SLRSIEQKYKLFQQQQLTFTAALE [SPACA9]
- protein stability index [1]: 2.6 ± 0.34
- protein stability index [2]: 2.73 ± 0.35

Sequence: FFCEGVKIIFRVGLVLLKHALGSP [TBC1D10A]
- protein stability index [1]: 1.98 ± 0.54
- protein stability index [2]: 2.11 ± 0.36

Sequence: YTKLPSSLQSTGKCLLYCNGVLEP [SLC25A39]
- protein stability index [1]: 2.64 ± 0.62
- protein stability index [2]: 2.23 ± 0.35

Sequence: EELVARSETHAAGHSQEKTHSREK [CHGB]
- protein stability index [1]: 5.66 ± 0.28
- protein stability index [2]: 5.47 ± 0.5

Sequence: PVTQIGFEAPPLQGQAAAPASGSG [TRIM55]
- protein stability index [1]: 5.14 ± 0.42
- protein stability index [2]: 5.22 ± 0.14

Sequence: VILNYPSPWDQEERPAQRDCSFPG [TRAF3IP2]
- protein stability index [1]: 2.79 ± 0.21
- protein stability index [2]: 3.15 ± 0.25

Sequence: YMIHEPEPHILLFRRPLPKKPKK [CKS1B]
- protein stability index (treatment: DMSO, c terminus: native): 2.55 ± 0.23
- protein stability index (treatment: MLN4924 1 uM, 8 h, c terminus: native): 2.99 ± 0.5

Sequence: QENQARTHVLSKEVQHLREEKSKQ [LRRC45]
- protein stability index [1]: 5.2 ± 0.29
- protein stability index [2]: 5.36 ± 0.29

Sequence: WFPPAIMGVVSLVFLIIYYLDPSV [ARL6IP1]
- protein stability index [1]: 2.52 ± 0.46
- protein stability index [2]: 3.28 ± 0.64

Sequence: NMCGYHSQDRYEFSSHITRGEHRF [IKZF1]
- protein stability index [1]: 2.47 ± 0.24
- protein stability index [2]: 2.55 ± 0.65

Sequence: FQIAANLSMERYALVFGVNTFIAL [SLC19A2]
- protein stability index [1]: 3.2 ± 0.18
- protein stability index [2]: 3.09 ± 0.17

Sequence: LGCFSDTEPWGGTAIRPLKILPWS [PNLIPRP1]
- protein stability index [1]: 2.1 ± 0.28
- protein stability index [2]: 2.43 ± 0.57

Sequence: AHELGHSLGLSHSTDIGALMYPSY [MMP1]
- protein stability index [1]: 3.14 ± 0.18
- protein stability index [2]: 2.9 ± 0.14

Sequence: KDVSRCVAERKYTQEQARKEFQQV [SMOC2]
- protein stability index [1]: 4.49 ± 0.16
- protein stability index [2]: 4.51 ± 0.38

Sequence: NVLHVARLPNRQLISCSEDGSVRI [WDR41]
- protein stability index [1]: 2.99 ± 0.17
- protein stability index [2]: 3.12 ± 0.32

Sequence: FWHDTLTEQLWRIFAGVHDEKAKP [TLE6]
- protein stability index [1]: 2.23 ± 0.41
- protein stability index [2]: 2.41 ± 0.76

Sequence: EVLSKALSQRTITVGVYEAAKLLN [GADD45A]
- protein stability index [1]: 2.77 ± 0.45
- protein stability index [2]: 2.56 ± 0.53

Sequence: SQDVSDCYLELFPAHLYFQAHGSE [PLEKHN1]
- protein stability index [1]: 2.49 ± 0.19
- protein stability index [2]: 2.81 ± 0.4

Sequence: EIRMWQTREKAKFSDGEKCRREAF [PHTF1]
- protein stability index [1]: 2.98 ± 0.14
- protein stability index [2]: 3.1 ± 0.31

Sequence: AVPKFMKRIKVPDYKDRSVFGVPL [DLC1]
- protein stability index [1]: 2.33 ± 0.15
- protein stability index [2]: 2.4 ± 0.25

Sequence: GIVGLNNIKANDYANAVLQALSNV [USP39]
- protein stability index [1]: 2.25 ± 0.42
- protein stability index [2]: 2.25 ± 0.45

Sequence: KIYAYPSNITSETGFRTISSLEEI [TMEM192]
- protein stability index [1]: 2.59 ± 0.15
- protein stability index [2]: 2.9 ± 0.3

Sequence: ASCSKNCTNSPAIVRFSGQSRGVP [FBXO34]
- protein stability index [1]: 3.68 ± 0.27
- protein stability index [2]: 3.63 ± 0.25

Sequence: NVVVHDWLYYYAYKDFLWFFSKRF [SOAT1]
- protein stability index [1]: 2.18 ± 0.35
- protein stability index [2]: 2.17 ± 0.44

Sequence: DVPNRLVDNIDMIDGDGDDMERFM [BEX5]
- protein stability index [1]: 4.98 ± 0.18
- protein stability index [2]: 5.06 ± 0.21

Sequence: TNDRTASQGQWGRAWEVDWFSLAS [DHCR7]
- protein stability index [1]: 2.61 ± 0.56
- protein stability index [2]: 2.68 ± 0.33

Source: the supplement of paper PMC10567573
